Experimental data published in paper PMC8991199, “Promiscuity mapping of the S100 protein family using a high-throughput holdup assay” (Scientific Reports, 2022).

Key:
Assay in all cases: fluorescence polarisation; direct FP: S100 protein diluted in 50 nM labeled foldamer, 20 mM HEPES pH 7.5, 150 mM NaCl, 1 mM CaCl2, 0.5 mM TCEP, 0.01% Tween20; quadratic fit (ProFit); detection threshold Kd 1 mM
[1] = target: fRR, fluorescently labelled H14 foldamer RR
[2] = target: fWL, fluorescently labelled H14 foldamer WL
[3] = target: fWW, fluorescently labelled H14 foldamer WW
[4] = target: fTI, fluorescently labelled H14 foldamer TI
[5] = target: fTM, fluorescently labelled H14 foldamer TM
[6] = target: fVL, fluorescently labelled H14 foldamer VL
[7] = target: fRF, fluorescently labelled H14 foldamer RF
[8] = target: fYF, fluorescently labelled H14 foldamer YF
[9] = target: fIF, fluorescently labelled H14 foldamer IF
[10] = target: fTW, fluorescently labelled H14 foldamer TW
[11] = target: fIL, fluorescently labelled H14 foldamer IL

Measured: Kd

B1: S100A9 (natural protein)
chain: MTCKMSQLERNIETIINTFHQYSVKLGHPDTLNQGEFKELVRKDLQNFLKKENKNEKVIEHIMEDLDTNADKQLSFEEFIMLMARLTWASHEKMHEGDEGPGHHHKPGLGEGTP
> 1000 µM: all assays above
